Assays:
[1] = test system: zmPPL_1360-r23a1 ZFN monomer (synthetic construct); assay: cell_activity; settings: ZFN pair with zmPPL_1360-30a1 in bombarded haploid maize callus; control 5.0; locus target SEQ 32
[2] = test system: zmPPL_1360-30a1 ZFN monomer (synthetic construct); assay: cell_activity; settings: ZFN pair with zmPPL_1360-r23a1 in bombarded haploid maize callus; control 5.0; locus target SEQ 32

Sequence	activity (indels per 1 million high quality reads) [1]	activity (indels per 1 million high quality reads) [2]
ACTCCGTATGCGAAGGCA (double strand) [zmPPL_1360-r23a1 half-site (PPL1 locus)]	40	–
TTCGCGGTGGGACACTTG (double strand) [zmPPL_1360-30a1 half-site (PPL1 locus)]	–	40
